Assay results taken from paper doi:10.1101/2021.05.19.444834.

Tests used:
[1] = molecular target: doubly dehydrated C62A ThfA (Thermobifida fusca); assay: BLI
[2] = molecular target: unmodified C62A ThfA (Thermobifida fusca); assay: BLI

- Kd [1]: 18 nM
- Kd [2]: 28 nM
Substance: maltose binding protein (MBP) fusion to ThfB (enzyme)
